US8003345B2, “Antioxidant pharmaceutical compound, method for producing polypeptide and method of cure” (Institute of Cell Biophysics Russian Academy of Sciences, priority 2002, dated 2011)

Assays:
[1] = test system: tracheal epithelium of rat after burn with vapors of hydrochloric acid; assay: Chemical burn (HCl vapors) of the upper respiratory tract of rat; type: in vivo
Description: The therapeutic properties of recombinant peroxiredoxin Prx V1hum in treating the upper respiratory tract of rat 24 hours after a burn were tested on a group of 4 Wistar line rats having a weight of 150-200 grams. The rats were analgized with analgin (100 mg/kg weight) and placed for 10 minutes into an exsiccator saturated with HCl vapors (the exsiccator volume was 10 liters, 20 animals were used). After the chemical burn, the rats were maintained for a definite period of time (40 min, 6 hrs, 1 day, 2 days, 14 days, 30 days), then narcotized with hexenal (300 mg/kg weight), and a sample of the tracheal epithelial tissue was isolated. For histochemical investigations the isolated sample was placed into a fixing solution containing 2% of formaldehyde and 0.5% of glutaraldehyde. The tissue was dehydrated .by sequential routing through ethyl alcohol with increasing concentration (40-100%). The tissue was embedded into LR white resin. The resin was polymerized at room temperature. 0.5 em-thick sections were made on an LKB ultratome (Sweden), using glass knives. The sections were stained with a hematoxylin-eosine and analyzed under a light microscope.
Maximum degradation of the epithelium is observed 24 hours after the burn, the ciliated cells which provide the mucus flow in the trachea being almost absent. Two weeks later a partial restoration of the ciliated cells is observed. […]

[2] = test system: T-lymphocytes from the spleen of line NRRI rats stimulated with concavalin A; assay: Proliferation of concanavalin A-stimulated T-lymphocytes (3H-thymidine inclusion); type: cell-based; details: 0.1-1.0 mg/ml concentration, against cells stimulated only with concavalin A
Description: The cytotoxicity is determined from the influence of recombinant Prx V1hum or of natural rat Prx V1rat on the level of proliferation of line L929 human lymphoblastoma cells and of T-lymphocytes from the spleen of line NRRI rats stimulated with concavalin A.
Cells of two lines with the concentration of 10^4 cells/ml medium were cultivated in RPMI 1640 containing 5% of bovine fetal serum. The stimulation of T-lymphocytes was carried out with the 0.1 μg/ml concentration of concavalin. In the case of T-lymphocytes the proliferation level was determined from the inclusion of ^3H-thymidine. The number of live line L929 cells was determined in a 96-cell plate with the aid of a Trypan stain, followed by scanning on a Multiscan multichannel photometer (LKB, Sweden).

B1: Prx VIhum: recombinant full-size human peroxiredoxin Prx VI, 224 amino acids (SEQ ID NO: 1), produced in E.coli (protein)
chain: MPGGLLLGDVAPNFEANTTVGRIRFHDFLGDSWGILFSHPRDFTPVCTTELGRAAKLAPEFAKRNVKLIALSIDSVEDHLAWSKDINAYNCEEPTEKLPFPIIDDRNRELAILLGMLDPAEKDEKGMPVTARVVFVFGPDKKLKLSILYPATTGRNFDEILRVVISLQLTAEKRVATPVDWKDGDSVMVLPTIPEEEAKKLFPKGVFTKELPSGKKYLRYTPQP
regeneration of tracheal epithelium (curative effect) ([1]; 14 days after burn, application started 24 hours after burn, once a day during 5 days, FIG. 7): almost complete regeneration of the ciliary cells of the epithelium | preservation of tracheal epithelial cells (protector effect) ([1]; application 1 hour after the burn, epithelium 24 hours after chemical burn, FIG. 6): Almost complete preservation of all epithelial cells | cell proliferation level of T-lymphocytes stimulated with concavalin A [2]: increased approximately twofold
